# Source: patent publication US20060063208A1
# Molecular target: BMP-2 (human) (UniProt P12643)
# Experiment: cell-based or functional assay
# BMP-2 (human), sequence (P12643 283-396 limits assumed): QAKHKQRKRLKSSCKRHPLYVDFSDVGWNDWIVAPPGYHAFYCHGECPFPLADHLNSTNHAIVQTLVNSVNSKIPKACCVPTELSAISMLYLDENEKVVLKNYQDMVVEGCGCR
substance,measurement,value
"DRAGON (DRG11-Responsive Axonal Guidance and Outgrowth of Neurite), recombinant, expressed in transfected cells (from UniProt Q7TQ33 49-415) (receptor)","BMP-dependent signaling, Msx2-Luc reporter in 10T1/2 and HepG2 cells",8 fold
same,luciferase activity of the BRE-luc reporter in LLC-PK1 cells,14 fold
